Among the data in article PMC7160132 are Kd values, retold here.

For the series, the system named is XPO5-His6 (Exportin-5) (Homo sapiens). Kind of series: EMSA. Particulars: no RanGTP, 20 mM HEPES pH 7.3, 150 mM K acetate, 2 mM Mg acetate, 0.05% NP-40, 7 mM 2-mercaptoethanol, 1.5 ug/mL poly dIdC, 0.2% BSA, 25 C 45 min, then 0.3 ug heparin …. (In general: A gel shift assay detects complexes by their altered migration in electrophoresis.)

With pri-mir-15b, the Kd (single shifted complex) was 9.57 nM.

For the substance vtRNA1-1, the Kd (1 nM RNA, super-shift at high XPO5) came to 36.3 nM.

Where the note is “two complexes with increasing XPO5”, pri-mir-19a gave a Kd of 14.6 nM.

For orientation: Kd means a measure of binding affinity in units of concentration.
